Laboratory results as given in patent publication US20240272170A1 (QUANTUM SI, published 2024).
Substitutions are numbered along the chain they refer to. Names and notes keep the numbering of the source. Values belong to the binder of their own block, whether it stands above or below them. No end group written: not given here. *: point of attachment. FITC = O=C1OC2(c3ccc(O)cc3Oc3cc(O)ccc32)c2ccc(NC(=S)*)cc21

Assays:
[1] = biological target: T1, HA peptide (XAKLDEESILKQK-FITC, X = H); test: fluorescence polarization titration, 20 C
T1 construct: also called peptide with N-terminal histidine
T1 peptide: HAKLDEESILKQK(FITC)
Procedure: (§1) Binding affinity was measured by polarization using a labeled peptide. The polarization response and total intensity measurements were carried out at 20° C. on a microplate fluorometer with 480 nm excitation and 530 nm emission. […] Multiple analyses were performed at increasing recognizer concentration at a fixed concentration of a target peptide to obtain a titration curve. An equilibrium polarization response at each concentration was plotted and fit to calculate the KD.
(§2) Fluorescence polarization assays were performed with all candidates, and single point binding responses were measured at a fixed concentration of the binders (FIG. 13A). […] We carried out multiple polarization binding titration analysis at increasing concentration of binder protein, and the Kds were determined from the titration curves (FIG. 13B).

[2] = biological target: T2, RA peptide (XAKLDEESILKQK-FITC, X = R); test: fluorescence polarization titration, 20 C
T2 construct: also called peptide with N-terminal arginine
T2 peptide: RAKLDEESILKQK(FITC)
Procedure: as §1, §2

[3] = biological target: T3, RL peptide (Octet assay of PS621 variants); test: Octet (BLI), 30 C
T3 construct: RXKLDEESILKQK with X = L
T3 peptide: RLKLDEESILKQK
From the text: (§3) Peptides of the sequence RXKLDEESILKQK (SEQ ID NO: 1076) were also used to evaluate the penultimate residue effect.

[4] = biological target: T4, RA peptide (Octet assay of PS621 variants); test: Octet (BLI), 30 C
T4 construct: X… with X = R
From the text: as §3

[5] = biological target: T5, KA peptide (Octet assay of PS621 variants); test: Octet (BLI), 30 C
T5 construct: XAKLDEESILKQK with X = K
T5 peptide: KAKLDEESILKQK

[6] = biological target: T6, HA peptide (Octet assay of PS621 variants); test: Octet (BLI), 30 C
T6 construct: XAKLDEESILKQK with X = H
T6 peptide: HAKLDEESILKQK

[7] = biological target: T7, AA peptide; test: BLI (Octet), peptide on sensor, purified protein in solution
T7 construct: The peptide was coated on the Octet sensor; also called peptide with N-terminal alanine and penultimate alanine
From the text: (§4) In the high-throughput assay, Octet sensors are coated with the peptide of interest and dipped in buffer containing the purified protein. An approximation of relative binding can be obtained by comparing the response after 200 seconds for each protein. Each protein has approximately the same molecular mass and is used at the same concentration, so ranking the proteins by response level in this assay gives an approximation of which proteins have improved binding. Studying the on and off-rate can also give insight into the mechanism of binding.

[8] = biological target: T8, VA peptide; test: as above
T8 construct: The peptide was coated on the Octet sensor; also called peptide with N-terminal valine and penultimate alanine
From the text: as §4

[9] = biological target: T9, LA peptide; test: as above
T9 construct: The peptide was coated on the Octet sensor; also called peptide with N-terminal leucine and penultimate alanine
From the text: as §4

B19: PS557 (other)
chain: MPTAASATESAIEDTPAPARPEVDGRTKPKRQPRYHVVLWNDDDHTYQYVVVMLQSLFGHPPERGYRLAKEVDTQGRVIVLTTTREHAELKRDQIHAFGYDRLLARSKGSMKASIEAEE
notes: Natural parent ClpS protein, expressed in E. coli and purified; also called WT; wild-type protein
Octet response after 200 sec association [7]: 0.01 nm
Octet response after 200 sec association [8]: 5.9 nm
Octet response after 200 sec association [9]: 9.8 nm

B20: PS824 (designed binder)
chain: B19 chain with I12F, N41D, Q55R, V72M
notes: Variant of PS557
Octet response after 200 sec association [7]: 3.9 nm
Octet response after 200 sec association [8]: 13.3 nm
Octet response after 200 sec association [9]: 13.8 nm

B21: PS847 (designed binder)
chain: B19 chain with N41D, Q55R, V72M
notes: Variant of PS557
Octet response after 200 sec association [7]: 0.288 nm
Octet response after 200 sec association [8]: 6.68 nm
Octet response after 200 sec association [9]: 9.92 nm

B22: PS819 (designed binder)
chain: B19 chain with N41D, E63K, V72M
notes: Variant of PS557; also called V72M, N41D, E63K
Octet response after 200 sec association [7]: 0.519 nm
Octet response after 200 sec association [8]: 7.42 nm
Octet response after 200 sec association [9]: 11.1 nm

B23: PS831 (designed binder)
chain: B19 chain with P62R, E63K, V72M, Q75L
notes: Variant of PS557
Octet response after 200 sec association [7]: 1.4 nm
Octet response after 200 sec association [8]: 11 nm
Octet response after 200 sec association [9]: 12.2 nm

B24: PS796 (designed binder)
chain: B19 chain with N41D, V72M
notes: also called N41D, V72M
Octet response after 200 sec association [7]: 3.5 nm
Octet response after 200 sec association [8]: 11.3 nm
Octet response after 200 sec association [9]: 11.9 nm

B25: PS828 (designed binder)
chain: B19 chain with N41D, P62R, Q75L
notes: Variant of PS557
Octet response after 200 sec association [7]: 0.469 nm
Octet response after 200 sec association [8]: 3.24 nm
Octet response after 200 sec association [9]: 7.75 nm

B27: PS798 (designed binder)
chain: B19 chain with V72M, Q75L
notes: Variant of PS557; also called V72M, Q75L
Octet response after 200 sec association [7]: 3.8 nm
Octet response after 200 sec association [8]: 12.9 nm
Octet response after 200 sec association [9]: 13.9 nm

B28: PS797 (designed binder)
chain: B19 chain with N41D, V72M, Q75L
notes: Variant of PS557; also called N41D, V72M, Q75L
Octet response after 200 sec association [7]: 3.2 nm
Octet response after 200 sec association [8]: 11.2 nm
Octet response after 200 sec association [9]: 12 nm

B29: PS809 (designed binder)
chain: B19 chain with V72M
notes: Variant of PS557; also called V72M
Octet response after 200 sec association [7]: 0.0226 nm
Octet response after 200 sec association [8]: 7.77 nm
Octet response after 200 sec association [9]: 10.8 nm

B30: PS801/PS814 (designed binder)
chain: B19 chain with E63K
notes: also called E63K
Octet response after 200 sec association [7]: 0.0017 nm
Octet response after 200 sec association [8]: 5.73 nm
Octet response after 200 sec association [9]: 10.7 nm

B31: PS838 (designed binder)
chain: B19 chain with N41D, P62R, V72M
notes: Variant of PS557; also called V72M, N41D, P62R
Octet response after 200 sec association [7]: 3 nm
Octet response after 200 sec association [8]: 11.6 nm
Octet response after 200 sec association [9]: 13.4 nm

B32: PS830 (designed binder)
chain: B19 chain with N41D, P62R, E63K, V72M, Q75L
notes: Variant of PS557
Octet response after 200 sec association [7]: 0.215 nm
Octet response after 200 sec association [8]: 6.64 nm
Octet response after 200 sec association [9]: 8.54 nm

B33: PS808 (designed binder)
chain: B19 chain with Q55R
notes: Variant of PS557; also called Q55R
Octet response after 200 sec association [7]: 0.0027 nm
Octet response after 200 sec association [8]: 5.71 nm
Octet response after 200 sec association [9]: 10.4 nm

Further lines, results first:

Kd [1]: 2850 nM
Kd [2]: 260 nM
B1: PS1104 (designed binder)
chain: MHSKFSHAGRICGAKFKVGEPIYRCKECSFDDTCVLCVNCFNPKDHRGHHVYTTICTEFNNGICDCGDKEAWNHTLFCKAEEG
notes: PS621 variant

Octet response [3]: 9.8
Octet response [4]: 7
Octet response [5]: 6.6
Octet response [6]: 2.4
B2: PS1110 (designed binder)
chain: B1 chain with R47T, I63E
notes: Variant of PS621

Octet response [3]: 10.3
Octet response [4]: 8.2
Octet response [5]: 5
Octet response [6]: 1.2
B3: PS1108 (designed binder)
chain: B1 chain with R47T, F59R
notes: Variant of PS621

Octet response [3]: 9
Octet response [4]: 8.6
Octet response [5]: 3.5
Octet response [6]: 0.5
B4: PS1117 (designed binder)
chain: B1 chain with R47L
notes: Variant of PS621

Octet response [3]: 10
Octet response [4]: 7.9
Octet response [5]: 2.7
B5: PS1111 (designed binder)
chain: B1 chain with R47T, E70S
notes: Variant of PS621

Octet response [3]: 9
Octet response [4]: 7.6
Octet response [5]: 4.7
Octet response [6]: 0.6
B6: PS1106 (designed binder)
chain: B1 chain with R47T, T53V
notes: Variant of PS621

Octet response [3]: 8.4
Octet response [4]: 6.2
Kd [2]: 787 nM
Octet response [5]: 2.9
B7: PS1103 (designed binder)
chain: B1 chain with D32Y, R47T
notes: Variant of PS621

Octet response [3]: 11.2
Octet response [4]: 9.9
Octet response [5]: 4.6
Octet response [6]: 1.3
B8: PS1122 (designed binder)
chain: B1 chain with R47L, I63E, E70T
notes: Variant of PS621 (T47L, I63E, E70T)

Octet response [3]: 9.3
Octet response [4]: 7.7
Octet response [5]: 3.8
Octet response [6]: 0.2
B9: PS1113 (designed binder)
chain: B1 chain with R47T, H74K
notes: Variant of PS621

Octet response [3]: 10.5
Octet response [4]: 8.2
Octet response [5]: 4.7
Octet response [6]: 0.6
B10: PS1109 (designed binder)
chain: B1 chain with R47T, N61K
notes: Variant of PS621

Octet response [3]: 8.5
Octet response [4]: 7.1
Octet response [5]: 1.2
B11: PS1116 (designed binder)
chain: B1 chain with R47T, G48Y
notes: Variant of PS621

Kd [1]: 2660 nM
Kd [2]: 180 nM
B12: PS1114 (designed binder)
chain: B1 chain with F59R
notes: PS621 variant

Kd [1]: 3500 nM
Kd [2]: 259 nM
B13: PS1121 (designed binder)
chain: B1 chain with R47K
notes: PS621 variant

Kd [1]: 1920 nM
Kd [2]: 152 nM
B14: PS1115 (designed binder)
chain: B1 chain with F59R, T75E
notes: PS621 variant

Octet response [3]: 10.6
Octet response [4]: 9.5
Octet response [5]: 5.4
Octet response [6]: 2.2
B15: PS1121 (designed binder)
chain: B1 chain with R47K
notes: Variant of PS621

Octet response [3]: 9.9
Octet response [4]: 8.6
Octet response [5]: 2.3
B16: PS1112 (designed binder)
chain: B1 chain with R47T, E70T
notes: Variant of PS621

Octet response [3]: 9.7
Octet response [4]: 9.2
Octet response [5]: 5.3
Octet response [6]: 1.2
B17: PS1114 (designed binder)
chain: B1 chain with F59R
notes: Variant of PS621

Kd [1]: 3440 nM
Kd [2]: 165 nM
B18: PS1106 (designed binder)
chain: B1 chain with R47T, T53V
notes: PS621 variant

Octet response after 200 sec association [7]: 1.7 nm
Octet response after 200 sec association [8]: 8.3 nm
Octet response after 200 sec association [9]: 9.7 nm
B26: PS852 (designed binder)
chain: B19 chain with R31H, N41D, Q55R, V72M
notes: Variant of PS557
